This note sets out measurements from patent US20220119534A1 (DRAGONFLY THERAPEUTICS, published 2022).

Changes are numbered by the printed parent chain.

Assay [1] addresses T1, Human CLEC12A-His (human, UniProt Q5QGZ9 65-265).
T1 construct: Recombinant soluble protein made in house (Dragonfly Tx); The hCLEC12A spot of the HuProt array is written under this molecule as well; also called hCLEC12A-His; hCLEC12A; not shown: His tag
T1 sequence: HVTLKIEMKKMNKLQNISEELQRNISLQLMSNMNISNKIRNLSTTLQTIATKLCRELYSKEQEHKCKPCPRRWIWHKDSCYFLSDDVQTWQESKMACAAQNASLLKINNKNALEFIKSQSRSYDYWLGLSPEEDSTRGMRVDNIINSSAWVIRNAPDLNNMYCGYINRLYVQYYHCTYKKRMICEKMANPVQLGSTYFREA
In words: SPR Biacore 8K 37 C; TriNKET captured on anti-hFc chip, hCLEC12A-His as analyte; two-state fit; two-state fit. (Surface plasmon resonance follows binding to a sensor surface in real time, without labels.)

The target in assay [2] is T1, Human CLEC12A-His. In words: SPR Biacore 8K 37 C; TriNKET captured on anti-hFc chip, hCLEC12A-His as analyte; two-state fit, kd2.
Assay [3] concerns the target T1, Human CLEC12A-His. Kind of assay: SPR Biacore 8K 37 C; TriNKET captured on anti-hFc chip, hCLEC12A-His as analyte; two-state fit, kd1; two-state fit; kd1.
For assay [4], the target named is T1, Human CLEC12A-His. Kind of assay: cell-based or functional assay.
Assay [5] deals with T1, Human CLEC12A-His. Kind of assay: SPR Biacore 8K 37 C; TriNKET captured on anti-hFc chip, hCLEC12A-His as analyte; two-state fit, ka1 only; two-state fit; ka1 only.
Assay [6] concerns the target T2, recombinant cynomolgus CLEC12A-His (cynomolgus monkey, UniProt A0A2K5WXQ4 71-271).
T2 construct: also called cCLEC12A-His; cCLEC12A
T2 sequence: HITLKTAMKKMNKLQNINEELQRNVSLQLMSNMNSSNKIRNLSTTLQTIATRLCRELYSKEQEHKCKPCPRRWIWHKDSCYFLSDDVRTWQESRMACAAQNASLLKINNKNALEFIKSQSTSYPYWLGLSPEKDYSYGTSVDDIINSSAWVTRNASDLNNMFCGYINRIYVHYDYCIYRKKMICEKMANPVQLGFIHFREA
In words: SPR 37C.

Assay [7] addresses T3, recombinant human CD16a V158 (human, UniProt P08637 17-208, biotinylated).
T3 construct: also called FcγRIIIa V158; hCD16aV
In words: SPR.

In another assay the target is T4, recombinant human CD16b (human, UniProt O75015 17-200, limits assumed, biotinylated).
T4 construct: also called FcγRIIIb
T4 sequence (O75015 17-200 limits assumed): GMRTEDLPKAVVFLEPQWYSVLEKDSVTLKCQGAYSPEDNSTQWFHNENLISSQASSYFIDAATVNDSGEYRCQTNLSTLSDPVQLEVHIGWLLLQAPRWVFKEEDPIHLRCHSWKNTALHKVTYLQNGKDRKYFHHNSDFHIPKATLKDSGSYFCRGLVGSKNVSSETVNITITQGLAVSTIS
Kind of assay: SPR.

Assay [8] has as its target T5, human CLEC12A expressed on cells (human, UniProt Q5QGZ9 1-265).
T5 construct: Transduced isogenic cells or endogenous expression on AML cells; also called RMA-hCLEC12A; Ba/F3-hCLEC12A
T5 sequence: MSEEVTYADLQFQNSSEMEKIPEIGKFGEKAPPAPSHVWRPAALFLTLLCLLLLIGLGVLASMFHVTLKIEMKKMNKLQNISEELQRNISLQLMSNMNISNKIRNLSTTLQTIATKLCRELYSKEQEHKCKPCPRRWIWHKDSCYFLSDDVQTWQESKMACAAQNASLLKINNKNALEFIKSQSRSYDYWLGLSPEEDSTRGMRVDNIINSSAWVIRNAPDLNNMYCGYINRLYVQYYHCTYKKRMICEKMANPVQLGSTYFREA
In words: flow cytometry on CLEC12A+ PL-21 AML cells. For orientation: A flow cytometer gives signals particle by particle.

Assay [9] has as its target T5, human CLEC12A expressed on cells. Kind of assay: flow cytometry on PL-21 cells, fold over background.
Description: (§1) The cells were then incubated with a fluorophore conjugated anti-human IgG secondary antibody and were analyzed by flow cytometry. The mean fluorescence intensity (MFI) values were normalized to secondary antibody only controls to obtain fold over background (FOB) values.
100,000 cells were seeded per well into a 96-well plate for FACS staining. Cells were washed with PBS. Cells were incubated in a 1:2000 dilution of live/dead dye in PBS for 15 minutes, then washed with FACS buffer. TriNKETs or mAbs were diluted into FACS buffer, and 50 μl containing diluted TriNKET or mAb was added to cells. Cells were incubated on ice for 20 minutes. After the incubation, cells were washed with FACS buffer. Anti-human IgG-Fc secondary antibody was diluted into FACS buffer, and 50 μl was added per well for detection of the bound TriNKETs or mAbs. Cells were incubated for 20 minutes on ice, then washed with FACS buffer. 50 μl of fixation buffer was added to each well, and cells were incubated for 10 minutes at room temperature. […] Within the live gate, the mean fluorescence intensity (MFI) of each sample and the secondary-only control was calculated. Fold-over-background (FOB) was calculated as the ratio of test article MFI over secondary-only background MFI. […]
Assay [10] concerns the target T6, recombinant human CLEC12A-His (human, UniProt Q5QGZ9 65-265).
T6 construct: also called hCLEC12A-His; hCLEC12A
T6 sequence: T1 sequence
In words: SPR, CLEC12A binding.

Assay [11] addresses T5, human CLEC12A expressed on cells. In words: flow cytometry, HL60.
Assay [12] shares this target. In words: flow cytometry on HL-60 cells, fold over background.
Description: as §1
100,000 cells were seeded per well into a 96-well plate for FACS staining. Cells were washed with PBS. Cells were incubated in a 1:2000 dilution of live/dead dye in PBS for 15 minutes, then washed with FACS buffer. TriNKETs or mAbs were diluted into FACS buffer, and 50 μl containing diluted TriNKET or mAb was added to cells. Cells were incubated on ice for 20 minutes. After the incubation, cells were washed with FACS buffer. Anti-human IgG-Fc secondary antibody was diluted into FACS buffer, and 50 μl was added per well for detection of the bound TriNKETs or mAbs. Cells were incubated for 20 minutes on ice, then washed with FACS buffer. 50 μl of fixation buffer was added to each well, and cells were incubated for 10 minutes at room temperature. Cells were washed with FACS buffer and resuspended in FACS buffer for analysis with BD FACS Celesta SN #H66034400085, or BD FACS Celesta SN #H66034400160. Cells of interest were identified using FSC vs. SSC plot, and an appropriately shaped gate was drawn around the cells. Within the gated cells, doublet cells were removed by viewing FSC-H vs FSC-A plot. Within the single cell population, live cells were gated. Within the live gate, the mean fluorescence intensity (MFI) of each sample and the secondary-only control was calculated. Fold-over-background (FOB) was calculated as the ratio of test article MFI over secondary-only background MFI. Data were fit to a four-parameter non-linear regression curve using GraphPad Prism 7.0.
For assay [13] the target is unchanged. In words: flow cytometry, hCLEC12A+ Ba/F3.
The target in another assay is T7, human CLEC12A-K244Q-His (human, UniProt Q5QGZ9 65-265).
T7 construct: Polymorphic variant; also called hCLEC12A-K244Q; CLEC12A (Q244)
T7 chain: T1 sequence with K180Q
Kind of assay: SPR.

Assay [14] has as its target T5, human CLEC12A expressed on cells. In words: flow cytometry (MFI) on CLEC12A+ PL21 AML cells, about 0.04 to 27 nM, plateau about 1150 MFI; the molecule is assigned by panel order and legend paragraph 296.
Assay [15] has as its target T6, recombinant human CLEC12A-His. In words: SPR; sensorgrams of a CLEC12A concentration series with fit overlays (response up to about 28, time axis 0 to about 900).
The target is the same in assay [16]. In words: SPR.
Assay [17] has the same target. In words: SPR screening, semi-purified.

T3 sequence (P08637 17-208 F176V limits assumed): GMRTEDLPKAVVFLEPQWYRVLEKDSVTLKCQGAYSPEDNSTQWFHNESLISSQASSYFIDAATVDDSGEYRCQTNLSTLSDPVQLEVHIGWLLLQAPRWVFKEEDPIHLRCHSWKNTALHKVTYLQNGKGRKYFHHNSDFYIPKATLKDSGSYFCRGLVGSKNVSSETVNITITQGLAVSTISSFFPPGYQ

B1: AB0053 (bispecific antibody)
chain 1: QLQLQESGPGLVKPSETLSLTCTVSGFSLTNYGLHWIRQPPGKCLEWIGVIWSGGKTDYNPSLKSRVTISKDTSKNQFSLKLSSVQAADTAVYYCAKYDYDDALDYWGQGTLVTVSSGGGGSGGGGSGGGGSGGGGSDIQMTQSPSSLSASVGDRVTITCHASQNINFWLSWYQQKPGKAPKLLIYEASNLHTGVPSRFSGSGSGTRFTLTISSLQPEDIATYYCQQSHSYPLTFGCGTKLEIKGSDKTHTCPPCPAPELLGGPSVFLFPPKPKDTLMISRTPEVTCVVVDVSHEDPEVKFNWYVDGVEVHNAKTKPREEQYNSTYRVVSVLTVLHQDWLNGKEYKCKVSNKALPAPIEKTISKAKGQPREPRVYTLPPCRDELTKNQVSLTCLVKGFYPSDIAVEWESNGQPENNYKTTPPVLVSDGSFTLYSKLTVDKSRWQQGNVFSCSVMHEALHNHYTQKSLSLSPG
chain 2: EVQLVESGGGLVKPGGSLRLSCAASGFTFSSYSMNWVRQAPGKGLEWVSSISSSSSYIYYADSVKGRFTISRDNAKNSLYLQMNSLRAEDTAVYYCARGAPIGAAAGWFDPWGQGTLVTVSSASTKGPSVFPLAPSSKSTSGGTAALGCLVKDYFPEPVTVSWNSGALTSGVHTFPAVLQSSGLYSLSSVVTVPSSSLGTQTYICNVNHKPSNTKVDKKVEPKSCDKTHTCPPCPAPELLGGPSVFLFPPKPKDTLMISRTPEVTCVVVDVSHEDPEVKFNWYVDGVEVHNAKTKPREEQYNSTYRVVSVLTVLHQDWLNGKEYKCKVSNKALPAPIEKTISKAKGQPREPQVCTLPPSRDELTENQVSLTCLVKGFYPSDIAVEWESNGQPENNYKTTPPVLDSDGSFFLYSWLTVDKSRWQQGNVFSCSVMHEALHNHYTQKSLSLSPG
chain 3: DIQMTQSPSSVSASVGDRVTITCRASQGISSWLAWYQQKPGKAPKLLIYAASSLQSGVPSRFSGSGSGTDFTLTISSLQPEDFATYYCQQGVSFPRTFGGGTKVEIKRTVAAPSVFIFPPSDEQLKSGTASVVCLLNNFYPREAKVQWKVDNALQSGNSQESVTEQDSKDSTYSLSSTLTLSKADYEKHKVYACEVTHQGLSSPVTKSFNRGEC
As to B1, the Kd (in general, the equilibrium constant for the complex coming apart) with Human CLEC12A-His [1] is 2410 pM. For the same molecule, the koff (commonly the rate constant with which the complex falls apart) with Human CLEC12A-His [2] came to 0.000949 s⁻¹; in the assay with Human CLEC12A-His [3], 0.0157 s⁻¹. Further, in the assay with Human CLEC12A-His [4], the “EC50 (nM), KHYG-1-CD16aV cytotoxicity assay, PL-21 cells” value worked out at 0.39 nM. In addition, the kon (commonly the second-order rate constant of association) in the assay with Human CLEC12A-His [5] was 1.63e+06 M⁻¹ s⁻¹.

B2: AB0089 TriNKET (other)
chain: B1 chain 1 with S53V, K56A, K71V, Y98G, D101G, A103T, R207D, I220F
heavy: B1 chain 2
light: B1 chain 3
B2: in assay [6], the binding result is on record as “no binding (tested: 100 nM)”. In addition, the “fold difference in affinity vs trastuzumab” value amounted to 3.8 fold in assay [7] and 2.3 fold with recombinant human CD16b. Moreover, a half-maximal response in assay [8] (EC50) required 450 pM. Moreover, in assay [9], the EC50 (read off the curve) (commonly the concentration needed to bring the measured effect to its halfway point) was roughly 500 pM. In addition, the Kd in assay [10] was determined as 800 pM.

B3: AB0192 TriNKET (other)
chain: EVQLVESGGGVVQPGGSLRLSCAASGFTFNAFGMHWVRQAPGKCLEWVAFISSGSTSIYYANTVKGRFTISRDNSKNTLYLQMNSLRAEDTAVYYCARDGYPTGGAMDYWGQGTSVTVSSGGGGSGGGGSGGGGSGGGGSDIQMTQSPSSLSASVGDRVTITCKASQDIYNYLSWFQQKPGKAPKPLIYRANILVSGVPSRFSGSGSGQDYTFTISSLQPEDIATYYCLQFDAFPFTFGCGTKLEIKGSDKTHTCPPCPAPELLGGPSVFLFPPKPKDTLMISRTPEVTCVVVDVSHEDPEVKFNWYVDGVEVHNAKTKPREEQYNSTYRVVSVLTVLHQDWLNGKEYKCKVSNKALPAPIEKTISKAKGQPREPRVYTLPPCRDELTKNQVSLTCLVKGFYPSDIAVEWESNGQPENNYKTTPPVLVSDGSFTLYSKLTVDKSRWQQGNVFSCSVMHEALHNHYTQKSLSLSPG
heavy: B1 chain 2
light: B1 chain 3
notes: Humanized 9F11.B7 scFv-Fc, A49MI Fab-Fc
With B3, the binding result in assay [6] is recorded as “no binding (tested: 100 nM)”. Besides, the EC50 – broadly, the midpoint of the concentration-response curve – in assay [11] worked out at 600 pM; in [13], 700 pM; in assay [14], 270 pM. In addition, the “Max binding MFI” value is 503 MFI in assay [11] and 10200 MFI in assay [13]. For the same molecule, in assay [12], the “EC50 (read off the curve)” value was roughly 1000 pM. In addition, in the assay with human CLEC12A-K244Q-His, the “fold difference in affinity vs CLEC12A WT” value is no more than 2.5 fold. For the same molecule, in assay [7], the “fold difference in affinity vs trastuzumab” value was roughly 2 fold. In addition, the Kd stood at 1660 pM in [15], 1200 pM in [16] and 1260 pM in assay [17]. Moreover, in assay [17], the koff was 0.00138 s⁻¹. The kon in assay [17] was 1.09e+06 M⁻¹ s⁻¹.
